Reference: patent US20150065561A1 (GEORGIA STATE UNIVERSITY RESEARCH FOUNDATION, published 2015)

Target: T1, CYLD (UniProt Q9NQC7 1-956, limits assumed)
T1 construct: also called deubiquitinase CYLD; cylindromatosis
T1 sequence (looked up): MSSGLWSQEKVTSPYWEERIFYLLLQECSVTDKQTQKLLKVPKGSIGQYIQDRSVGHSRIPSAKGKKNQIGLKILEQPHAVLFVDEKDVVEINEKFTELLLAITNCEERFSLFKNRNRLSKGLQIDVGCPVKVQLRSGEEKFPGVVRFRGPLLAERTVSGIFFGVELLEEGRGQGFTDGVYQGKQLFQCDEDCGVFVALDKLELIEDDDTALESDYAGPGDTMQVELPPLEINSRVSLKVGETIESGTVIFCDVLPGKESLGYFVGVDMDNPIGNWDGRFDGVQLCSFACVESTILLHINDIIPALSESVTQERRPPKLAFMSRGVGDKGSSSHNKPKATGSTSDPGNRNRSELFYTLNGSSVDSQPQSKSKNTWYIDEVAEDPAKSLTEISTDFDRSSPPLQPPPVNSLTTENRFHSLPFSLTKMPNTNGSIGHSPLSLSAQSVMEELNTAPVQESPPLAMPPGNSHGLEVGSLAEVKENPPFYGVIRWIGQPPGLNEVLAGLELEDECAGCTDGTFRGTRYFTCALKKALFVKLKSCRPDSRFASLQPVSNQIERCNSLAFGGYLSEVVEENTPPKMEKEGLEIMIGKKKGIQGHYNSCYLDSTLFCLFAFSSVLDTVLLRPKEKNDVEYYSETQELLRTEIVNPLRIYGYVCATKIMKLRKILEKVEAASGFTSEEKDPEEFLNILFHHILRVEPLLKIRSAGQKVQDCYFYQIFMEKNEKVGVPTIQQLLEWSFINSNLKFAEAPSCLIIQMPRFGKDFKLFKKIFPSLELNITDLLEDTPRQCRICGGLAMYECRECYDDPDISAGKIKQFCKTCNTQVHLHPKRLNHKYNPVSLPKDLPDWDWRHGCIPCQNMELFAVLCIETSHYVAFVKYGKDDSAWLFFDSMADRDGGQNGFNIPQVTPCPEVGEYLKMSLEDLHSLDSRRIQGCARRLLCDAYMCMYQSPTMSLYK
Assay: co-immunoprecipitation
Description: Western blot, immunoprecipitation and ubiquitination experiments were performed as follows. Western blots were performed using whole-cell extracts, separated on 8 or 10% SDS-PAGE gels, and transferred to polyvinylidine di& uoride membranes. The membrane was blocked with a solution of PBS containing 0.1% Tween 20 (PBS-T) and 5% BSA. The membrane was then incubated in a 1:2,000 dilution of a primary antibody in 5% BSA-PBS-T. After three washes in PBS-T, the membrane was incubated with 1:5,000 dilution of the corresponding secondary antibody in 3% non-fact skim milk-PBS-T. Respective proteins were visualized by using enhanced chemiluminescence detection reagents, according to the manufacturer's instructions. To conduct immunoprecipitation analysis, cell lysates were incubated with 1 μg of primary antibodies overnight, at 4° C., followed by 2-h incubation with protein A/G-agarose beads (Invitrogen). Immunoprecipitates were then suspended in a sample buffer, separated on 8% SDS-PAGE, transferred to polyvinylidine difluoride membrane, and detected by immunoblot analysis, as described above. […]

binding result: no binding
B1: CHIP (enzyme, UniProt Q9UNE7 1-303, looked up)
chain: MKGKEEKEGGARLGAGGGSPEKSPSAQELKEQGNRLFVGRKYPEAAACYGRAITRNPLVAVYYTNRALCYLKMQQHEQALADCRRALELDGQSVKAHFFLGQCQLEMESYDEAIANLQRAYSLAKEQRLNFGDDIPSALRIAKKKRWNSIEERRIHQESELHSYLSRLIAAERERELEECQRNHEGDEDDSHVRAQQACIEAKHDKYMADMDELFSQVDEKRKKRDIPDYLCGKISFELMREPCITPSGITYDRKDIEEHLQRVGHFDPVTRSPLTQEQLIPNLAMKEVIDAFISENGWVEDY
